Data on two substances can be found in paper PMC10626209.

The target in assay [1] is GFP-tagged SHROOM2 ASD2 domain (mouse protein 1,178–1,488 aa) (mouse). As to the kind of experiment: SPR.
For assay [2], the target named is preformed SHROOM2:ROCK1 complex (mouse | human) (UniProt Q13464). Briefly: SPR.

What is called Kd is a measure of binding affinity in units of concentration. In turn, “GST-tagged SCRIB C-terminal fragment (1,478–1,630) (from UniProt Q14160 1478-1630) (domain or fragment)” had a Kd in assay [1] of 960 nM. In assay [2], this substance displayed a fold higher affinity than for the single domain (printed: ROCK1 alone) of 5 fold.
Regarding “GST-tagged ROCK1 SBD domain (834–913 aa) (from UniProt Q13464 834-913) (domain or fragment)”, the Kd in assay [1] turned out to be 1000 nM.
